Test results as given in article PMC7748142, “ATM inhibition enhances Auranofin-induced oxidative stress and cell death in lung cell lines” (PLoS ONE, 2020).

B1: peroxiredoxin 3 (PRDX3), murine lung fibroblasts (enzyme, mouse (endogenous in MLFs), UniProt P20108 63-257, looked up)
chain: TPAVTQHAPYFKGTAVVNGEFKELSLDDFKGKYLVLFFYPLDFTFVCPTEIVAFSDKANEFHDVNCEVVAVSVDSHFSHLAWINTPRKNGGLGHMNITLLSDITKQISRDYGVLLESAGIALRGLFIIDPNGVVKHLSVNDLPVGRSVEETLRLVKAFQFVETHGEVCPANWTPESPTIKPSPTASKEYFEKVHQ
notes: peroxiredoxin 3, endogenous in murine lung fibroblasts, detected by anti-PRDX3 blot; source: endogenous, murine lung fibroblast (MLF) lysate
B2: peroxiredoxin 1 (PRDX1) (enzyme, human (endogenous in HEK 293T and A549), UniProt Q06830 1-199, looked up)
chain: MSSGNAKIGHPAPNFKATAVMPDGQFKDISLSDYKGKYVVFFFYPLDFTFVCPTEIIAFSDRAEEFKKLNCQVIGASVDSHFCHLAWVNTPKKQGGLGPMNIPLVSDPKRTIAQDYGVLKADEGISFRGLFIIDDKGILRQITVNDLPVGRSVDETLRLVQAFQFTDKHGEVCPAGWKPGSDTIKPDVQKSKEYFSKQK
notes: peroxiredoxin 1, endogenous in human cell lines, detected by anti-PRDX1 blot; source: endogenous, HEK 293T lysate (trapping); endogenous, A549 lysate (dimer analysis)
B3: peroxiredoxin 3 (PRDX3), A549 cells (enzyme, human (endogenous in A549), UniProt P30048 62-256, looked up)
chain: APAVTQHAPYFKGTAVVNGEFKDLSLDDFKGKYLVLFFYPLDFTFVCPTEIVAFSDKANEFHDVNCEVVAVSVDSHFSHLAWINTPRKNGGLGHMNIALLSDLTKQISRDYGVLLEGSGLALRGLFIIDPNGVIKHLSVNDLPVGRSVEETLRLVKAFQYVETHGEVCPANWTPDSPTIKPSPAASKEYFQKVNQ
notes: peroxiredoxin 3, endogenous in A549 cells, detected by anti-PRDX3 blot; source: endogenous, A549 lysate

Target: the molecule itself
Experiment: non-reducing SDS-PAGE with Western blot; A549 or MLF cells treated with Auranofin (A549: 10 uM, MLF: 2 uM) alone or with KU55933 (10 uM, 1 h pre-treatment); lysed in CHAPS buffer with 100 mM NEM; boiled in non-reducing sample buffer; disulfide-linked dimers

Stoichiometry N, 2:
B1
B2
B3
